Reference: the supplement of paper PMC9170038

Columns and labels:
MS2 coat protein [1] = test: apparent KD of MS2 coat protein, switch ON state; designed switch direction (-1 OFF switch, 1 ON switch): 1; higher = weaker reporter binding; conditions: FMN input: 0 or 200 uM; Eterna round: R93 (includes R88 designs)
In short: (§1)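 The designed RNA switches were transcribed on-chip from Illumina sequencing clusters. In 100 mM Tris-HCl pH 7.5, 80 mM KCl and 4 mM MgCl2, without or with constant ligand, they were titrated with SNAP-549-labelled MS2 coat protein from 0.7 or 1.5 nM to 3 µM in twofold steps. Apparent KD is the per-design median of normalised cluster binding-curve fits.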

MS2 coat protein [2] = test: apparent KD of MS2 coat protein, switch OFF state (with FMN for OFF switches, without FMN for ON switches); designed switch direction (-1 OFF switch, 1 ON switch): 1; higher = weaker reporter binding; conditions: FMN input: 0 or 200 uM; Eterna round: R93 (includes R88 designs)
In short: as §1

| Sequence | apparent KD of MS2 coat protein (MS2 coat protein [1]) [nM] | apparent KD of MS2 coat protein (MS2 coat protein [2]) [nM] |
| --- | --- | --- |
| AAAAAACAUGAGGAUCACCCAUGUAGAAACAUGGGAGGAUAUACAAAGACGAAAGUCAAAGUAGAAGGCCUAAAAA [Mat - Same State 1 - Mod - D157] | 77.7 | 33.5 |
| AAAACACAUGAGGAUCACCCAUGUAAAAACAUGAGAGGAUAUGCAUAGAAAAAAAACUAUGCAGAAGGCUCAUGUG [SS1 - 5] | 20 | 29.1 |
| AAAACACAUGAGGAUCACCCAUGUGAAAACAUGGGAGGAUAUGCAUGGAAAACAUGCUAUGCAGAAGGCUCAUGUG [SS1 - 7] | 83.8 | 62.6 |
| AAAACACAUGAGGAUCACCCAUGUGCAAAAUUCGCAGGAUAUUCCUCAAUUAAAUGAGAGGAAGAAGGGUGAUAAA [Nob's Hobby 33 - Jieux - Same State 1] | 18.9 | 53.4 |
| AAAAGACAUGAGGAUCACCCAUGUAAAAACGUGGGAGGAUAUGCAUGGAAAACAUGCUGUGCAGAAGGCCCGUGUC [SS1 - 22] | 263 | 200 |
| AAAAGACAUGAGGAUCACCCAUGUAAAAACUUGAGAGGAUAUGCUUGGAAAACAUGCUAUGCAGAAGGCUCUAGUC [SS1 - 15] | 18 | 26.3 |
| AAAAUAUAAACGGAGGAUAUCCAAAGAACCACAUGAGGAUCACCCAUGUAAAGAAAGAAUAAGUGGGAGAAGGCCGAAAUAAUAA [Designing denovo 27] | 18.9 | 56.9 |
| AAACAGAUAGGACAGGAUAUGUCGUGAUAAACAUGAGGAUCACCCAUGUGAGACAUCACGUAAUCGCAGAAGGGUCCCGUCUUAC [Usonsoave] | 11.1 | 12.7 |
| AAAGGGAUUACGGAGGAUAUGGAAAAAAAAACAUGAGGAUCACCCAUGUCAAAAAAAAAAAAGGACCAGAAGGCCGUAAUCUCAAA [hsl_samestate2] | 19.9 | 22.6 |
| AAAGUGCCGACGAAGGAUAUAGCGGGUGAGACAUGAGGAUCACCCAUGUAUGCAGAACUCAUCCUCUAGAAGGUUGAGACGGCUA [Bionlateat] | 488 | 138 |
| AAAUAAAAAAAAAAGGAUAUUCAUGUGAAAACAUGAGGAUCACCCAUGUAAAAAAAUAAAAAUAAAAAGAAGGAAAAAUAAAAAA [SS2: 86 No MS2] | 571 | 841 |
| AAAUAAAGGACUGAGGAUAUACCACAUGAAACAUGAGGAUCACCCAUGUAAUAAUACAAAGGGUGGUAGAAGGUAGUCCACAAACA [so let's mod Hyphema] | 14 | 26.8 |
| AAAUGACAUGAGGAUCACCCAUGUCCACCAAACGGAGGAUAUUGGGCGGAAAAACGUUGUUAAGAAGGCCGAAAAA [SS1-1.0] | 143 | 73.7 |
| AACAAUCUAUCUGAGGAUAUAUGUCGAAAGACAUGAGGAUCACCCAUGUGAAAACAUGAAAAAUAAUAGAAGGCAGAUAGAUUGA [SS2: 1141] | 80.5 | 413 |
| AACAAUCUAUCUGAGGAUAUAUGUCGAAAGACAUGAGGAUCACCCAUGUGAAAACAUGAAAAGACAUAGAAGGCAGAUAGAUUGA [SS2: 1131] | 27.4 | 47.3 |
| AACAAUCUAUCUGAGGAUAUCAUGUAAAAAACAUGAGGAUCACCCAUGUCUAGGAAAACUAGAUAUGAGAAGGCAGAUAGAUUGA [SS1 - 596] | 110 | 86.1 |
| AACAAUCUAUCUGAGGAUAUCAUGUAAAAAACAUGAGGAUCACCCAUGUGCAGGAAAACUGCAUAUGAGAAGGCAGAUAGAUUGA [SS2 :P - 600] | 98.1 | 192 |
| AACAAUCUAUCUGAGGAUAUCAUGUCAAAGACAUGAGGAUCACCCAUGUCCAGGAAAACUGGAUAUGAGAAGGCAGAUAGAUUGA [SS2: 1105] | 179 | 3310 |
| AACAAUCUAUCUGAGGAUAUCAUGUCAAAGACAUGAGGAUCACCCAUGUCGCAGGAAACUGCUCAUGAGAAGGCAGAUAGAUUGA [SS2: 1128] | 11.2 | 17.2 |
| AACAUACAUGAGGAUCACCCAUGUUCCGGCAGGUCAGGAUAUUCAUCGAAAGUGUUAUAAGAAGAAGGGACAUAAA [JR_SS001_Sub011] | 34 | 48.9 |
| AAGAAACAUGAGGAUCACCCAUGUAAGAUAAACACAGGAUAUGCGAAAGAAAUAAAGAAAGCAGAAGGGUGAAGAA [Mat - Same State 1 - Tesla mod - D147] | 14.3 | 26.8 |
| AAGAAACAUGAGGAUCACCCAUGUAGAAACAUGGGAGGAUAUACAAAGACGAAAGUCAAAGUAGAAGGCCUAAGAA [Mat - Same State 1 - Mod - D164] | 102 | 63.5 |

| Sequence | apparent KD of MS2 coat protein (MS2 coat protein [1]) [nM] | apparent KD of MS2 coat protein (MS2 coat protein [2]) [nM] |
| --- | --- | --- |
| AAGAAACAUGAGGAUCACCCAUGUGAGAAUAACACAGGAUAUGCGAAAAGAAACAAAGAAGCAGAAGGGUGAAGAA [Mat - Same State 1 - Tesla mod - 54] | 20 | 40.3 |
| AAGAAAGUUUACGAGGAUAUGUUCCGCAGAACAUGAGGAUCACCCAUGUGAACAAGAAAGGCGACGCAGAAGGCGUGAGCUAUGA [Anesdien] | 32.7 | 106 |
| AAUAAACAUGAGGAUCACCCAUGUAAUAAUAUGGGAGGAUAUACUAAAAUAAAAUAAAAUGUAGAAGGCCUAAUAA [LROPPY Same State 1 - v05_deltaG=1.05 break up the As] | 35.5 | 159 |
| AAUACAAAUAGUCAGGAUAUCAAAAAUAAGACAUGAGGAUCACCCAUGUAAUAAGUAAAAGUAAAUGAGAAGGGACAGGGUGAAA [JR_SS002_Sub401] | 530 | 59.2 |
| AAUACACAUGGUCAGGAUAUCGCAGCUAGGACAUGAGGAUCACCCAUGUCGUAAGUAAAAGUAAAUGAGAAGGGACAGGGUGACC [JR_SS002_Sub406] | 133 | 28.2 |
| AAUAUACAUGAGGAUCACCCAUGUUAGGUGGGACUAGGAUAUCAAAAUAAAUAAAGAACAUGAGAAGGAGUAUCAA [JR_SS001_Sub401] | 94.5 | 152 |
| AAUAUAUUAAGUGAGGAUAUCAUAGGAAAAACAUGAGGAUCACCCAUGUGGGAAACCUGGUCGGGUGAGAAGGUACUUAAUAUAU [Samwise Clockwise 31 - Jieux - Same State 2] | 69.2 | 175 |
| AAUCCAAAUAGUUAGGAUAUGGGAAUUAAAACAUGAGGAUCACCCAUGUAAUUGAAACAAGUUAACCAGAAGGGACAGGGUGAAA [JR_SS002_Sub209] | 68.8 | 46.1 |
| ACUAUACAUGAGGAUCACCCAUGUCAGGUGGGACUAGGAUAUCAUAAGCCAGAGUAAGUAUGAGAAGGAGUAGAAA [JR_SS001_Sub305] | 73.2 | 74.7 |
| AGAAAACAUGAGGAUCACCCAUGUAGGAAUAUGGGAGGAUAUACAAAGACGAAAGUCAGAGUAGAAGGCCUAGGAA [salish99-SS1-089] | 20.7 | 71.5 |
| AGAAAUAAAAGACAGGAUAUCCAAACUCAAACAUGAGGAUCACCCAUGUAAAAGAAAAUAAAGUGGGAGAAGGGUCAAAAUAAGA [Jieux modified + C segment V4] | 12.6 | 33.1 |
| AGAAAUAAAAGAGAGGAUAUCCAAAAGAAAACAUGAGGAUCACCCAUGUAAAAGAAAAUAAAAUGGGAGAAGGCUCAUGAUAAAG [JL In the Red Helter Skelter 2 mod 1] | 42 | 35.8 |
| AGAAAUAAAAGCGAGGAUAUCCAAAAGAAAACAUGAGGAUCACCCAUGUAAAAGAAAAUAAAAUGGGAGAAGGCGCAAAAUAAAG | 14.7 | 27.3 |
| AGAAAUAAACCGAAGGAUAUCUAAACCUAAACAUGAGGAUCACCCAUGUAAAAGAAAAUAAAAUGGGAGAAGGUCGGAAAUAAGA [Designing denovo 12] | 17.5 | 29.9 |
| AGAAAUAAAGCUGAGGAUAUCCAAAACCAAACAUGAGGAUCACCCAUGUAAAAGAAAAUAAAAUGGGAGAAGGCAGCAAAUAAGA [Designing denovo 8] | 12.5 | 21.9 |
| AGAAGACAUGAGGAUCACCCAUGUGGGAAUAUGGGAGGAUAUACAAAGACGAGAGUCAGAGUAGAAGGCCUAGGAU [salish99-SS1-092] | 37.3 | 118 |
| AGAAGACAUGAGGAUCACCCAUGUGGGAUUAUGGGAGGAUAUACAAAGACGAGAGUCAGAGUAGAAGGCCUAGGAG [salish99-ss1-114(!)] | 45.4 | 66.4 |
| AGAAUAAAAACAGAGGAUAUCCAAAAGAAAACAUGAGGAUCACCCAUGUAAAAGAAAAUAAAAUGGGAGAAGGCUGAAAAAAAGA [Mat - Same State 2 - Eli mod - D98] | 25 | 39.3 |
| AGGAAACAUGAGGAUCACCCAUGUAAAAAUAUGGGAGGAUAUACAAACAGGAAAGAGAGAGUAGAAGGCCUAAAAG [Garnet 20] | 72.9 | 41.8 |
| AGGAAACAUGAGGAUCACCCAUGUAAAAAUAUGGGAGGAUAUACGAAGACAAAAAAAAAAGUAGAAGGCCUAAAAG [Garnet 12] | 65.2 | 266 |
| AGGAAACAUGAGGAUCACCCAUGUAAAAGGUGGGUAGGAUAUGCGAAAAGAAAAAGAAAAGCAGAAGGACCAAGAA [62%, Something completely different, 1] | 38.7 | 108 |
